The values below come from paper PMC8091081 (Infection and Immunity, 2021).

For assay [1], the target named is PhtD of pneumococcal strain TCH8431 (serotype 19A), endogenous (Streptococcus pneumoniae TCH8431 …, UniProt A0A0H2UPR0, strain). In words: Western blot. In general terms: Immunoblotting shows a protein as a band on a membrane.
Assay [2] deals with PhtD of pneumococcal strain TIGR4 (serotype 4), endogenous (Streptococcus pneumoniae TIGR4 …, UniProt A0A0H2UPR0). As to the kind of experiment: Western blot.
In assay [3] the target is MBP-PhtD fragment, amino acids 341 to 838 (Streptococcus pneumoniae TCH8431 …, UniProt A0A0H2UPR0, strain). In words: ELISA. Background: An ELISA detects its analyte on a solid surface through an enzyme-linked reagent.

B1: human MAb PhtD3 (antibody, V domains shown)
VH: QVQLVQSGPDVKKPGSSVKVSCKASGAAFESFAFAWVRQAPGQGFEWMGRIIPILETRDYAEKFQGRMTMTTDESTATAYMELNSLRFEDTAVYFCARDGHIMRTTLSDAALDVWGQGTTVIVSS
VL: DIVMTQSPVTLSLSPGERATLSCRASQSLTDNYLAWYQQKPGQAPRLLIYAASTRATGIPDRISGSGSGTDFTLTISRVEPEDFAMFYCQQYQNSPFTFGGGTTVEIK
For the molecule B1, the binding result in assay [1] and in assay [2] was “binds” each time.

B2: human MAb PhtD7 (antibody, V domains shown)
VH: EVQLVQSGAEVKKPGASVKVSCKASGDIFSDSYIHWVRQAPGQGPEWMGWVSPNTGATHYAQKLQGRVTMTSDTSISTAYLELTRLASDDTAVYYCARVLRGSYDFRGNYPHDFDYWGQGTLVTVSS
VL: QLVLTQPPSASASLGASVTLTCTLSRGHNNYPIAWLQKQTDKGPRYVMRLNSDGSHHKGDGIPDRFSGSSSGAERYLSISSLQPEDEAEYYCQTWDTGLQGVFGGGTKLFVL
Turning to B2, in assay [3], the binding result is listed as “binds”.
